Each block holds one binder with its values, some of them ahead of it. Numbered stars: 1 amine (or outer) side, 2 acyl side, 3 side chain; on linkers, the order of the positions; unused ones are H or OH. Bridge positions count the residues as written; N and C are the ends. Side chains are listed from the residue outwards. Ends that are not written are not given here. * marks the point of attachment. C20 diacid = O=C(O)CCCCCCCCCCCCCCCCCCC(=O)*; γGlu = O=C(O)[C@H](CCC(=O)[*:2])N[*:1]; AEEA = NCCOCCOCC(=O)O
Experiments:
[1] = molecular target: T1, human calcitonin receptor (human, UniProt P30988 25-474); test: SPA competition on BHK cell membranes, 125I-calcitonin as radioligand (Assay VII)
T1 construct: whole, on cells; Used as cell membranes; also called hCTR; hCT
T1 sequence (looked up): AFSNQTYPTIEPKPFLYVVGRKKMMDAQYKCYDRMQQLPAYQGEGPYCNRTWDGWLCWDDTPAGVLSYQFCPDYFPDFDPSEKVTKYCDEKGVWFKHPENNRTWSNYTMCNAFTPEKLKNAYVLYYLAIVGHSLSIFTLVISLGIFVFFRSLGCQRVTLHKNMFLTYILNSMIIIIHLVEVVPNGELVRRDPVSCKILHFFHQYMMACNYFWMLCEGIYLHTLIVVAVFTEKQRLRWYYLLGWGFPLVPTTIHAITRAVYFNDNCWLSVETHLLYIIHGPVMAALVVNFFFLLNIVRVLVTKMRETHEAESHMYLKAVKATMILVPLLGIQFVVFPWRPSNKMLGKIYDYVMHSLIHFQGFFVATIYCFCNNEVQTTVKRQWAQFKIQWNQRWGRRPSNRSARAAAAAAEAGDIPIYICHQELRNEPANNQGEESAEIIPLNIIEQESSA
Summary of the method: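 BHK hCTR membranes 35 ng/μL + SPA beads 0.05 mg/well; buffer 50 mM Hepes pH 7.4, 1 mM CaCl2, 5 mM MgCl₂, 0.1% OA, 0.02% Tween20. 120 min, 25° C., shaking. Scintillation count; IC50 by one-site binding competition.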

[2] = molecular target: T1, human calcitonin receptor; test: ratio of hCTR IC50 to hAmylin-R IC50 (reference: human amylin receptor)
Summary of the method: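 Scintillation proximity competition binding on cell membranes at 35 ng/μL with SPA beads, in 50 mM Hepes pH 7.4, 1 mM CaCl2, 5 mM MgCl₂, 0.1% OA, 0.02% Tween20. Incubated 120 min at 25° C with shaking. IC₅₀ from one-site competition fit.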

B1: N^ε1-[2-[2-[2-[[(4S)-4-carboxy-4-(19-carboxynonadecanoylamino)butanoyl]amino]ethoxy]ethoxy]acetyl]-[His14,Arg17,Pro21,Pro27]-h-amylin (peptide)
peptide: K([AEEA-γGlu-C20 diacid])CNTATCATQRLAHFLRHSSPNFGAIPSSTNVGSNTY-NH2
modifications: disulfide 2-7; N-terminus assumed
SMILES: CC[C@H](C)[C@H](NC(=O)[C@H](C)NC(=O)CNC(=O)[C@H](Cc1ccccc1)NC(=O)[C@H](CC(N)=O)NC(=O)[C@@H]1CCCN1C(=O)[C@H](CO)NC(=O)[C@H](CO)NC(=O)[C@H](Cc1c[nH]cn1)NC(=O)[C@H](CCCNC(=N)N)NC(=O)[C@H](CC(C)C)NC(=O)[C@H](Cc1ccccc1)NC(=O)[C@H](Cc1c[nH]cn1)NC(=O)[C@H](C)NC(=O)[C@H](CC(C)C)NC(=O)[C@H](CCCNC(=N)N)NC(=O)[C@H](CCC(N)=O)NC(=O)[C@@H](NC(=O)[C@H](C)NC(=O)[C@@H]1CSSC[C@H](NC(=O)[C@@H](N)CCCCNC(=O)COCCOCCNC(=O)CC[C@H](NC(=O)CCCCCCCCCCCCCCCCCCC(=O)O)C(=O)O)C(=O)N[C@@H](CC(N)=O)C(=O)N[C@@H]([C@@H](C)O)C(=O)N[C@@H](C)C(=O)N[C@@H]([C@@H](C)O)C(=O)N1)[C@@H](C)O)C(=O)N1CCC[C@H]1C(=O)N[C@@H](CO)C(=O)N[C@@H](CO)C(=O)N[C@H](C(=O)N[C@@H](CC(N)=O)C(=O)N[C@H](C(=O)NCC(=O)N[C@@H](CO)C(=O)N[C@@H](CC(N)=O)C(=O)N[C@H](C(=O)N[C@@H](Cc1ccc(O)cc1)C(N)=O)[C@@H](C)O)C(C)C)[C@@H](C)O
notes: also called compound 69
IC50 [1]: 8.68 nM | Ratio hCT/hAmylin binding [2]: 65.3

B3: N^ε1-[2-[2-[2-[[(4S)-4-carboxy-4-(19-carboxynonadecanoylamino)butanoyl]amino]ethoxy]ethoxy]acetyl]-[Ser14,Arg17,Pro21,Pro27,Pro31]-h-amylin (peptide)
peptide: K([AEEA-γGlu-C20 diacid])CNTATCATQRLASFLRHSSPNFGAIPSSTPVGSNTY-NH2
modifications: disulfide 2-7; N-terminus assumed
SMILES: CC[C@H](C)[C@H](NC(=O)[C@H](C)NC(=O)CNC(=O)[C@H](Cc1ccccc1)NC(=O)[C@H](CC(N)=O)NC(=O)[C@@H]1CCCN1C(=O)[C@H](CO)NC(=O)[C@H](CO)NC(=O)[C@H](Cc1c[nH]cn1)NC(=O)[C@H](CCCNC(=N)N)NC(=O)[C@H](CC(C)C)NC(=O)[C@H](Cc1ccccc1)NC(=O)[C@H](CO)NC(=O)[C@H](C)NC(=O)[C@H](CC(C)C)NC(=O)[C@H](CCCNC(=N)N)NC(=O)[C@H](CCC(N)=O)NC(=O)[C@@H](NC(=O)[C@H](C)NC(=O)[C@@H]1CSSC[C@H](NC(=O)[C@@H](N)CCCCNC(=O)COCCOCCNC(=O)CC[C@H](NC(=O)CCCCCCCCCCCCCCCCCCC(=O)O)C(=O)O)C(=O)N[C@@H](CC(N)=O)C(=O)N[C@@H]([C@@H](C)O)C(=O)N[C@@H](C)C(=O)N[C@@H]([C@@H](C)O)C(=O)N1)[C@@H](C)O)C(=O)N1CCC[C@H]1C(=O)N[C@@H](CO)C(=O)N[C@@H](CO)C(=O)N[C@H](C(=O)N1CCC[C@H]1C(=O)N[C@H](C(=O)NCC(=O)N[C@@H](CO)C(=O)N[C@@H](CC(N)=O)C(=O)N[C@H](C(=O)N[C@@H](Cc1ccc(O)cc1)C(N)=O)[C@@H](C)O)C(C)C)[C@@H](C)O
notes: also called compound 73
IC50 [1]: 5.38 nM | Ratio hCT/hAmylin binding [2]: 51.7

B4: N^ε1-[2-[2-[2-[[(4S)-4-carboxy-4-(19-carboxynonadecanoylamino)butanoyl]amino]ethoxy]ethoxy]acetyl]-[Lys14,Arg17,Pro21,Pro27,Pro31]-h-amylin (peptide)
peptide: K([AEEA-γGlu-C20 diacid])CNTATCATQRLAKFLRHSSPNFGAIPSSTPVGSNTY-NH2
modifications: disulfide 2-7; N-terminus assumed
SMILES: CC[C@H](C)[C@H](NC(=O)[C@H](C)NC(=O)CNC(=O)[C@H](Cc1ccccc1)NC(=O)[C@H](CC(N)=O)NC(=O)[C@@H]1CCCN1C(=O)[C@H](CO)NC(=O)[C@H](CO)NC(=O)[C@H](Cc1c[nH]cn1)NC(=O)[C@H](CCCNC(=N)N)NC(=O)[C@H](CC(C)C)NC(=O)[C@H](Cc1ccccc1)NC(=O)[C@H](CCCCN)NC(=O)[C@H](C)NC(=O)[C@H](CC(C)C)NC(=O)[C@H](CCCNC(=N)N)NC(=O)[C@H](CCC(N)=O)NC(=O)[C@@H](NC(=O)[C@H](C)NC(=O)[C@@H]1CSSC[C@H](NC(=O)[C@@H](N)CCCCNC(=O)COCCOCCNC(=O)CC[C@H](NC(=O)CCCCCCCCCCCCCCCCCCC(=O)O)C(=O)O)C(=O)N[C@@H](CC(N)=O)C(=O)N[C@@H]([C@@H](C)O)C(=O)N[C@@H](C)C(=O)N[C@@H]([C@@H](C)O)C(=O)N1)[C@@H](C)O)C(=O)N1CCC[C@H]1C(=O)N[C@@H](CO)C(=O)N[C@@H](CO)C(=O)N[C@H](C(=O)N1CCC[C@H]1C(=O)N[C@H](C(=O)NCC(=O)N[C@@H](CO)C(=O)N[C@@H](CC(N)=O)C(=O)N[C@H](C(=O)N[C@@H](Cc1ccc(O)cc1)C(N)=O)[C@@H](C)O)C(C)C)[C@@H](C)O
notes: also called compound 74
IC50 [1]: 79.9 nM | Ratio hCT/hAmylin binding [2]: 101

Results, then the binder that gave them:

IC50 [1]: 17.8 nM | Ratio hCT/hAmylin binding [2]: 101
B2: N^ε1-[(4S)-4-carboxy-4-(19-carboxynonadecanoylamino)butanoyl]-[Ala14,Arg17,Pro21,Pro27,His34]-h-amylin (peptide)
peptide: K([γGlu-C20 diacid])CNTATCATQRLAAFLRHSSPNFGAIPSSTNVGHNTY-NH2
modifications: disulfide 2-7; N-terminus assumed
SMILES: CC[C@H](C)[C@H](NC(=O)[C@H](C)NC(=O)CNC(=O)[C@H](Cc1ccccc1)NC(=O)[C@H](CC(N)=O)NC(=O)[C@@H]1CCCN1C(=O)[C@H](CO)NC(=O)[C@H](CO)NC(=O)[C@H](Cc1c[nH]cn1)NC(=O)[C@H](CCCNC(=N)N)NC(=O)[C@H](CC(C)C)NC(=O)[C@H](Cc1ccccc1)NC(=O)[C@H](C)NC(=O)[C@H](C)NC(=O)[C@H](CC(C)C)NC(=O)[C@H](CCCNC(=N)N)NC(=O)[C@H](CCC(N)=O)NC(=O)[C@@H](NC(=O)[C@H](C)NC(=O)[C@@H]1CSSC[C@H](NC(=O)[C@@H](N)CCCCNC(=O)CC[C@H](NC(=O)CCCCCCCCCCCCCCCCCCC(=O)O)C(=O)O)C(=O)N[C@@H](CC(N)=O)C(=O)N[C@@H]([C@@H](C)O)C(=O)N[C@@H](C)C(=O)N[C@@H]([C@@H](C)O)C(=O)N1)[C@@H](C)O)C(=O)N1CCC[C@H]1C(=O)N[C@@H](CO)C(=O)N[C@@H](CO)C(=O)N[C@H](C(=O)N[C@@H](CC(N)=O)C(=O)N[C@H](C(=O)NCC(=O)N[C@@H](Cc1c[nH]cn1)C(=O)N[C@@H](CC(N)=O)C(=O)N[C@H](C(=O)N[C@@H](Cc1ccc(O)cc1)C(N)=O)[C@@H](C)O)C(C)C)[C@@H](C)O
notes: also called compound 93

IC50 [1]: 60.9 nM | Ratio hCT/hAmylin binding [2]: 91.4
B5: N^ε1-[2-[2-[2-[[(4S)-4-carboxy-4-(19-carboxynonadecanoylamino)butanoyl]amino]ethoxy]ethoxy]acetyl]-[Thr14,Arg17,Pro21,Pro27,Pro31]-h-amylin (peptide)
peptide: K([AEEA-γGlu-C20 diacid])CNTATCATQRLATFLRHSSPNFGAIPSSTPVGSNTY-NH2
modifications: disulfide 2-7; N-terminus assumed
SMILES: CC[C@H](C)[C@H](NC(=O)[C@H](C)NC(=O)CNC(=O)[C@H](Cc1ccccc1)NC(=O)[C@H](CC(N)=O)NC(=O)[C@@H]1CCCN1C(=O)[C@H](CO)NC(=O)[C@H](CO)NC(=O)[C@H](Cc1c[nH]cn1)NC(=O)[C@H](CCCNC(=N)N)NC(=O)[C@H](CC(C)C)NC(=O)[C@H](Cc1ccccc1)NC(=O)[C@@H](NC(=O)[C@H](C)NC(=O)[C@H](CC(C)C)NC(=O)[C@H](CCCNC(=N)N)NC(=O)[C@H](CCC(N)=O)NC(=O)[C@@H](NC(=O)[C@H](C)NC(=O)[C@@H]1CSSC[C@H](NC(=O)[C@@H](N)CCCCNC(=O)COCCOCCNC(=O)CC[C@H](NC(=O)CCCCCCCCCCCCCCCCCCC(=O)O)C(=O)O)C(=O)N[C@@H](CC(N)=O)C(=O)N[C@@H]([C@@H](C)O)C(=O)N[C@@H](C)C(=O)N[C@@H]([C@@H](C)O)C(=O)N1)[C@@H](C)O)[C@@H](C)O)C(=O)N1CCC[C@H]1C(=O)N[C@@H](CO)C(=O)N[C@@H](CO)C(=O)N[C@H](C(=O)N1CCC[C@H]1C(=O)N[C@H](C(=O)NCC(=O)N[C@@H](CO)C(=O)N[C@@H](CC(N)=O)C(=O)N[C@H](C(=O)N[C@@H](Cc1ccc(O)cc1)C(N)=O)[C@@H](C)O)C(C)C)[C@@H](C)O
notes: also called compound 75

— patent US20140087995A1 (published 2014)
